Residue numbers refer to the chain shown, from its start. In names and notes the source's numbering stands.

Holding throughout (assay type): biochemical
Data set [1] is described as follows: Oxidase activity testing against perindopril. The conditions noted are these: substrate Perindopril. As for the experimental part:
(§1) Lyophilised material of recombinant P450, ferredoxin and ferredoxin reductase proteins was made as described in Example 4 and reconstituted in high purity water to the original volume. Biocatalysis was performed with shaking incubation at 27° C. in the following conditions: 100 mM potassium phosphate pH 8.0, 5 mM MgCl2 (both present in the reconstituted enzyme preparation) and 0.1 mg/ml substrate compound such as ambroxide (Sigma-Aldrich, UK), carbamazepine (Sigma-Aldrich, UK), diclofenac (Sigma-Aldrich, UK), tivantinib (MedChemtronica, Sweden), clarithromycin (Tokyo Chemical Industry, Japan), sclareol (Sigma-Aldrich, UK), celecoxib (LC Laboratories, USA), buparvaquone (Sigma-Aldrich, UK), BIRB796 (MedChemExpress, USA), vanoxerine (CiVentiChem, USA), valsartan (Tokyo Chemical Industry, Japan), ruxolitinib (LC Laboratories, USA), perindopril (Selleckchem, USA), solifenacin (Key Organics, UK), 7-ethoxycoumarin (Tokyo Chemical Industry, Japan), tofacitinib (LC Laboratories, USA), ebastine (Key Organics, UK), efavirenz (Key Organics, UK), propanalol (Sigma-Aldrich, UK) and tolbutamide (Key Organics, UK).
(§2) Concentrations of P450, ferredoxin and ferredoxin reductase were as extracted (Example 4). Reactions were initiated by addition of 10× stock of cofactor mixture (50 mM G6P, 10 mM NADP+, 10 UN/ml G6PDH) to provide a final volume of e.g., 10 μl to 90 μl for 100 μl total reaction volumes. After 16-20 hours, reactions were extracted with an equal volume of acetonitrile, centrifuged to remove precipitated proteins and conversion assessed by UPLC-MS analysis.
(§3) UPLC Data were Obtained as Follows: • Column: Acquity UPLC BEH Shield RP18 1.7 μm 2.1 mm i.d. 50 mm length • Solvents: H2O, B: Acetonitrile, both with 0.1% Formic acid • Flow rate: 1.0 ml/min • Detector: Waters Acquity UPLC PDA (UV-Vis detection) and Waters Acquity UPLC QDA (MS)
(§4) Representative results for the % conversions of various substrates to products by enzymes with mutations at position T109 or L198 and double mutants at T109 and 1129/L198 are shown in Table 4 below.

Data set [2] can be described thus: Oxidase activity testing against propanalol. The settings on record: substrate Propanalol. As for the experimental part: as §1, §2, §3, §4
A short description of data set [3]: Oxidase activity testing against ruxolitinib. The conditions noted are these: substrate Ruxolitinib. As for the experimental part: as §1, §2, §3, §4
Data set [4] is described as follows: Oxidase activity testing against efavirenz. The conditions noted are these: substrate Efavirenz. As for the experimental part:
as §1, §2, §3, §4

Data set [5] in a line: Oxidase activity testing against tolbutamide. The conditions noted are these: substrate Tolbutamide. As for the experimental part:
as §1, §2, §3, §4

The nature of data set [6]: Oxidase activity testing against BIRB796. The settings on record: substrate BIRB796. The procedure:
as §1, §2, §3, §4

Data set [7] can be described thus: Oxidase activity testing against celecoxib. The settings on record: substrate Celecoxib. The procedure:
as §1, §2, §3, §4

A short description of data set [8]: Oxidase activity testing against valsartan. The conditions noted are these: substrate Valsartan. As for the experimental part:
as §1, §2, §3, §4

Data set [9] in a line: Oxidase activity testing against buparvaquone. The conditions noted are these: substrate Buparvaquone. The procedure: as §1, §2, §3, §4
Data set [10] is described as follows: Oxidase activity testing against carbamazepine. The settings on record: for +16 Da (1.18 min) 253 m/z: 2-hydroxycarbamazepine; for +16 Da (1.18 min) 253 m/z / +16 Da (1.14 min) 253 m/z / Parent (1.31 min) 237 m/z: relative MS peak area; for +16 Da (1.14 min) 253 m/z: carbamazepine epoxide; for reaction products from carbamazepine (in words): new product at 1.18 minutes identified as 2-hydroxycarbamazepine, epoxide at 1.14 minutes; for Parent (1.31 min) 237 m/z: remaining carbamazepine, 0.1 mg/ml, 27° C., 16-20 hours; for Average % conversion: substrate carbamazepine, relative MS peak areas. As for the experimental part:
as §1, §2, §3
To confirm the identities of reaction products where known, their chromatographic retention time, mass and ultraviolet spectra were compared with those of authentic metabolite standards.
Representative results for the % conversions of carbamazepine to oxidised (+16 Da) products for single point mutants at position L198 are shown in Table 3 below.

Data set [11] in a line: Oxidase activity testing against solifenacin. The settings on record: substrate Solifenacin. The procedure: as §1, §2, §3, §4
The nature of data set [12]: Oxidase activity testing against vanoxerine. The settings on record: substrate Vanoxerine. As for the experimental part: as §1, §2, §3, §4
A short description of data set [13]: Oxidase activity testing against 7-ethoxycoumarin. The conditions noted are these: substrate 7-ethoxycoumarin. The procedure: as §1, §2, §3, §4
A short description of data set [14]: Oxidase activity testing against ebastine. The conditions noted are these: for Average % conversion: substrate Ebastine. The procedure:
as §1, §2, §3, §4

A short description of data set [15]: Oxidase activity testing against sclareol. The conditions noted are these: for Average % conversion: substrate Sclareol, UPLC-MS UV or MS peak areas. The procedure: as §1, §2, §3, §4
Data set [16] in a line: Oxidase activity testing against tofacitinib. The conditions noted are these: substrate Tofacitinib. The procedure:
as §1, §2, §3, §4

A short description of data set [17]: Oxidase activity testing against clarithromycin. The conditions noted are these: substrate Clarithromycin. The procedure:
as §1, §2, §3, §4

B1: SeuC10M9: P450SeuC10 with L198A mutation, SEQ ID NO: 22 (protein)
chain: MKIGTTHLTRLRGLSMTELTDITGPAAQAETVAFPQDRTCPYHPPTGYDPLRDGRPLSRVTLYDGREVWLVTAQATARALLADPRLSTDRRRDGFPVPTPRFAAGRDRTLALLGLDDPEHHRQRRLLIPSFTLKRATAQRPWIQRIVDELLDAMIARGPVADLVSAFALPVPSMVICELLGVPYADHEFFEEQSRRLARGPTGADTTDARDRLEAYLGDLIDAKAKEAEPGDGILDDLVHNRLRAGELDRSVLVSLAVILLVAGHETTANMISLGTYTLLQHPERLAELRADPSLLPAVVEELLRMLSIAEGLQRLALEDIEIDGITIRAGEGVLFSTSVINRDTAVYEDPDDLDFHRADRHHVAFGFGIHQCLGQNLARAELEIALGSLFTRLPGLRLAAPAEEIPFKPGDTVQGMLELPVTW
modifications: SeuC10M9
For the molecule B1, the Average % conversion in [1] (Batch 1) stood at 15.7%; in data set [2] (Batch 1), 0%; in data set [3] (Batch 1) it was 55.1%; in data set [4] (Batch 1), 3.1%; in [5] (Batch 1), 14.7%; in data set [6] (Batch 1) it was 10%. In addition, the Average % conversion in data set [7] (Batch 1) worked out at 2.6%; in data set [8] (Batch 1), 6.9%; in [9] (Batch 1) it was 1.2%; in [10], 16.9%; in [11] (Batch 1), 0.8%; in data set [12] (Batch 1), 23%. For the same molecule, the Average % conversion in [13] (Batch 1) is recorded as 10.7%; in data set [14] (Batch 1) it was 25.1%; in data set [15] (Batch 1) it was 75.2%; in data set [16] (Batch 1), 6.2%; in data set [17] (Batch 1), 0%. In [10], the “+16 Da (1.18 min) 253 m/z” value worked out at 1.1%. Moreover, the “+16 Da (1.14 min) 253 m/z” value in data set [10] was determined as 15.8%. Besides, in [10], the “reaction products from carbamazepine (in words)” value (from here on “reaction products”) is on record as “produce a new product”. Further, the “Parent (1.31 min) 237 m/z” value in data set [10] was determined as 83.1%. Further, the “conversion of ebastine compared to wild-type (in words)” value in data set [14] is “significantly increased conversion”. Also, the “conversion of sclareol compared to wild-type (in words)” value in [15] was “significantly increased conversion”.

B2: SeuC10M20: P450SeuC10 with L198W mutation, SEQ ID NO: 44 (protein)
chain: B1 chain with A198W
modifications: SeuC10M20
With B2, the Average % conversion amounted to 16.5% in data set [1] (Batch 1); 0% in data set [2] (Batch 1); 42.7% in [3] (Batch 1); 0% in data set [4] (Batch 1); 13.7% in data set [5] (Batch 1); 45.3% in [6] (Batch 1). For the same molecule, the Average % conversion is 6.9% in [7] (Batch 1); 25% in data set [8] (Batch 1); 1.7% in data set [9] (Batch 1); 10.3% in data set [10]; 0.6% in [11] (Batch 1); 29.4% in data set [12] (Batch 1). The Average % conversion in data set [13] (Batch 1) is recorded as 11.4%; in data set [14] (Batch 1), 19.2%; in [15] (Batch 1), 0%; in [16] (Batch 1), 5.9%; in data set [17] (Batch 1) it was 0%. In data set [10], the “+16 Da (1.18 min) 253 m/z” value came out at 3.5%. Moreover, the “+16 Da (1.14 min) 253 m/z” value in data set [10] was determined as 6.8%. The “reaction products” value in data set [10] is “produce a new product”. The “Parent (1.31 min) 237 m/z” value in data set [10] was 89.7%.

B3: M52: P450SeuC10 with T109D mutation, SEQ ID NO: 122 (protein)
chain: B1 chain with T109D, A198L
modifications: SeuC10M52
B3: the Average % conversion is reported as 37.9% in data set [1] (Batch 2); 0% in data set [2] (Batch 2); 87.7% in data set [3] (Batch 2); 0% in data set [4] (Batch 2); 26.3% in data set [5] (Batch 2); 13% in [6] (Batch 2). Moreover, the Average % conversion is 29.7% in data set [7] (Batch 2); 16.1% in data set [8] (Batch 2); 24.8% in [9] (Batch 2); 17.2% in data set [11] (Batch 2); 65% in data set [12] (Batch 2); 17.3% in data set [13] (Batch 2). Also, the Average % conversion in data set [14] (Batch 2) was determined as 3.1%; in [15] (Batch 2) it was 25.4%; in [16] (Batch 2), 38.2%; in data set [17] (Batch 2), 1%.

B4: SeuC10M13: P450SeuC10 with L198F mutation, SEQ ID NO: 30 (protein)
chain: B1 chain with A198F
modifications: SeuC10M13
Consider B4, for which the Average % conversion is reported as 38.2% in data set [1] (Batch 1); 0% in data set [2] (Batch 1); 98.1% in [3] (Batch 1); 0% in [4] (Batch 1); 27.9% in data set [5] (Batch 1); 54.6% in data set [6] (Batch 1). The Average % conversion in [7] (Batch 1) came to 26.8%; in data set [8] (Batch 1), 12%; in data set [9] (Batch 1), 39.1%; in data set [10] it was 45.4%; in [11] (Batch 1), 0.8%; in data set [12] (Batch 1), 29.4%. Moreover, the Average % conversion is on record as 31.2% in [13] (Batch 1); 14.7% in data set [14] (Batch 1); 41.3% in data set [15] (Batch 1); 32.2% in data set [16] (Batch 1); 0% in [17] (Batch 1). The “+16 Da (1.18 min) 253 m/z” value in data set [10] is given as 3.1%. The “+16 Da (1.14 min) 253 m/z” value in [10] is on record as 42.3%. Also, the “reaction products” value in data set [10] was “produce a new product”. In addition, the “Parent (1.31 min) 237 m/z” value in data set [10] was determined as 54.6%.

(Values after patent US20240263208A1, “CYTOCHROME P450 ENZYME” (HYPHA DISCOVERY LTD., priority 2021, published 2024).)
